Data reported in publication PMC12167710.

B1: anti-mouse κ VHH (TP1170) (VHH)
VHH: QVQLVESGGGWVQPGGSLRLSCAASGFTFSDTAMMWVRQAPGKGREWVAAIDTGGGYTYYADSVKGRFTISRDNAKNTLYLQMNSLKPEDTARYYCAKTYSGNYYSNYTVANYGTTGRGTLVTVSS
B2: anti-human λ VHH (HuFab lambda 1) (VHH)
VHH: QVQLQDSGGGLVQPGGSLRLSCAASGFTLDYYAIGWFRQAPGKEREGVSCISSSDGSSDGYTYYADSVKGRFTISRDNAKNTVYLQMNNLKPEDTAVYYCAARLFGVATTDPSYFDSWGQGTQVTVSS

Tests used:
[1] = molecular target: recombinant mouse IgG1κ isotype control antibody (clone P3.6.2.8.1) (mouse)
[2] = molecular target: recombinant human IgG1λ isotype control antibody (clone AbD00264_hIgG1) (human)

Binder | Kd [1] [pM] | Kd [2] [pM]
B1 | 16.7 | 
B2 |  | 1350
